These sequences were tested on Escherichia coli TOP10 (assay: shrunken log2 fold change of peptide-encoding DNA abundance (4.5 h post-induction vs induction); higher = less antimicrobial activity (less host growth inhibition)). Settings: time post-induction: 4.5 h; library: site-saturation at positions 5, 18, 19, 20.
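Further: peptides expressed intracellularly from a pBAD plasmid library in pooled LB shake-flask culture, induced with 0.3% L-arabinose, DNA abundance read by NGS, three biological replicates, DESeq2 with apeglm shrinkage.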

| Sequence | shrunken log2 fold change |
| --- | --- |
| RRIRCRPPRLPRPRPRPCMSPRP | -0.185 |
| RRIRKRPPRLPRPRPRPMWEPRP | 0.214 |
| RRIRLRPPRLPRPRPRPKCNPRP | -0.647 |
| RRIRPRPPRLPRPRPRPVEPPRP | 0.352 |
| RRIRKRPPRLPRPRPRPEKYPRP | -0.0153 |
| RRIRQRPPRLPRPRPRPVPWPRP | -0.01 |
| RRIRMRPPRLPRPRPRPCKMPRP | 0.0367 |
| RRIRLRPPRLPRPRPRPNCIPRP | -0.603 |
| RRIRTRPPRLPRPRPRPIYFPRP | -0.468 |
| RRIRHRPPRLPRPRPRPEVAPRP | -0.00165 |
| RRIRERPPRLPRPRPRPFHVPRP | -0.854 |
| RRIRARPPRLPRPRPRPSYLPRP | -0.716 |
| RRIRWRPPRLPRPRPRPTFNPRP | 0.00157 |
| RRIRFRPPRLPRPRPRPSRSPRP | -0.104 |
| RRIRTRPPRLPRPRPRPMSYPRP | 0.0494 |
| RRIRFRPPRLPRPRPRPSMNPRP | 0.274 |
| RRIRQRPPRLPRPRPRPLHKPRP | 0.0733 |
| RRIRVRPPRLPRPRPRPTEPPRP | 0.128 |
| RRIRCRPPRLPRPRPRPFEYPRP | -0.548 |
| RRIRARPPRLPRPRPRPNVYPRP | -0.115 |
| RRIRGRPPRLPRPRPRPNVMPRP | 0.114 |
| RRIRCRPPRLPRPRPRPNDIPRP | -0.762 |
| RRIRQRPPRLPRPRPRPHVAPRP | -0.0333 |
| RRIRKRPPRLPRPRPRPYFYPRP | -0.274 |
| RRIRLRPPRLPRPRPRPYKTPRP | -0.352 |

| Sequence | shrunken log2 fold change |
| --- | --- |
| RRIRYRPPRLPRPRPRPAKDPRP | -0.151 |
| RRIRKRPPRLPRPRPRPRHFPRP | 0.0965 |
| RRIRARPPRLPRPRPRPFIIPRP | -0.264 |
| RRIRIRPPRLPRPRPRPVTMPRP | -1.03 |
| RRIRCRPPRLPRPRPRPLAVPRP | 0.0263 |
| RRIRQRPPRLPRPRPRPAIVPRP | -0.0943 |
| RRIRNRPPRLPRPRPRPWNYPRP | -0.101 |
| RRIRPRPPRLPRPRPRPHYRPRP | -0.112 |
| RRIRTRPPRLPRPRPRPRERPRP | 0.112 |
| RRIRRRPPRLPRPRPRPLAWPRP | 0.226 |
| RRIRTRPPRLPRPRPRPFAIPRP | 0.061 |
| RRIRMRPPRLPRPRPRPQTSPRP | 0.339 |
| RRIRNRPPRLPRPRPRPEKGPRP | -0.0357 |
| RRIRHRPPRLPRPRPRPFIQPRP | -0.577 |
| RRIRFRPPRLPRPRPRPELKPRP | -0.0455 |
| RRIRLRPPRLPRPRPRPTQAPRP | 0.507 |
| RRIRDRPPRLPRPRPRPRQGPRP | 0.0779 |
| RRIRRRPPRLPRPRPRPMPFPRP | -0.0201 |
| RRIRYRPPRLPRPRPRPADDPRP | -0.0179 |
| RRIRQRPPRLPRPRPRPNKTPRP | -0.0379 |
| RRIRNRPPRLPRPRPRPQAMPRP | -0.0233 |
| RRIRSRPPRLPRPRPRPQGPPRP | -0.0522 |
| RRIRWRPPRLPRPRPRPGHEPRP | 0.0994 |
| RRIRERPPRLPRPRPRPVWNPRP | -0.165 |
| RRIRDRPPRLPRPRPRPSSDPRP | 0.412 |

| Sequence | shrunken log2 fold change |
| --- | --- |
| RRIRPRPPRLPRPRPRPNNAPRP | -0.19 |
| RRIRTRPPRLPRPRPRPCHDPRP | -0.215 |
| RRIRCRPPRLPRPRPRPPIRPRP | 0.0846 |
| RRIRFRPPRLPRPRPRPVVPPRP | -0.196 |
| RRIRLRPPRLPRPRPRPGFGPRP | 0.189 |
| RRIRWRPPRLPRPRPRPDFYPRP | -0.11 |
| RRIRARPPRLPRPRPRPGQNPRP | 0.596 |
| RRIRLRPPRLPRPRPRPFLMPRP | -0.551 |
| RRIRGRPPRLPRPRPRPMCIPRP | 0.166 |
| RRIRWRPPRLPRPRPRPTRSPRP | 0.723 |
| RRIRCRPPRLPRPRPRPNHVPRP | -0.248 |
| RRIRMRPPRLPRPRPRPHLIPRP | 0.133 |
| RRIRWRPPRLPRPRPRPEQFPRP | 0.32 |
| RRIRRRPPRLPRPRPRPENQPRP | 0.368 |
| RRIRNRPPRLPRPRPRPCDQPRP | -0.0229 |
| RRIRERPPRLPRPRPRPATIPRP | -0.105 |
| RRIRVRPPRLPRPRPRPVEPPRP | 0.218 |
| RRIRFRPPRLPRPRPRPFKEPRP | -0.173 |
| RRIRTRPPRLPRPRPRPSQCPRP | -0.239 |
| RRIRVRPPRLPRPRPRPARNPRP | 0.414 |
| RRIRNRPPRLPRPRPRPHKLPRP | -0.411 |
| RRIRDRPPRLPRPRPRPFWMPRP | 0.0871 |
| RRIRKRPPRLPRPRPRPKQPPRP | -0.0354 |
| RRIRNRPPRLPRPRPRPKNQPRP | -0.54 |
| RRIRERPPRLPRPRPRPYREPRP | -0.00865 |

| Sequence | shrunken log2 fold change |
| --- | --- |
| RRIRSRPPRLPRPRPRPELYPRP | -0.00809 |
| RRIRVRPPRLPRPRPRPFWWPRP | 0.343 |
| RRIRERPPRLPRPRPRPIAVPRP | 0.0116 |
| RRIRHRPPRLPRPRPRPEARPRP | 0.192 |
| RRIRDRPPRLPRPRPRPRPHPRP | 0.465 |
| RRIRSRPPRLPRPRPRPINGPRP | -0.00748 |
| RRIRCRPPRLPRPRPRPDWTPRP | -0.268 |
| RRIRHRPPRLPRPRPRPYPIPRP | -0.887 |
| RRIRIRPPRLPRPRPRPRPCPRP | -0.0531 |
| RRIRERPPRLPRPRPRPYNPPRP | 0.00932 |
| RRIRFRPPRLPRPRPRPYFGPRP | -1.15 |
| RRIRNRPPRLPRPRPRPIRSPRP | -0.389 |
| RRIRYRPPRLPRPRPRPMMEPRP | -0.141 |
| RRIRGRPPRLPRPRPRPRCEPRP | 0.782 |
| RRIRNRPPRLPRPRPRPQPMPRP | -0.111 |
| RRIRVRPPRLPRPRPRPNENPRP | -0.349 |
| RRIRCRPPRLPRPRPRPLREPRP | 0.562 |
| RRIRRRPPRLPRPRPRPWSTPRP | -0.0543 |
| RRIRARPPRLPRPRPRPFMCPRP | 0.618 |
| RRIRRRPPRLPRPRPRPTIAPRP | 0.0702 |
| RRIRWRPPRLPRPRPRPMNSPRP | -0.0812 |
| RRIRYRPPRLPRPRPRPEWCPRP | -0.244 |
| RRIRSRPPRLPRPRPRPLFCPRP | -0.146 |
| RRIRHRPPRLPRPRPRPNMFPRP | -0.464 |
| RRIRVRPPRLPRPRPRPFYQPRP | -0.537 |

| Sequence | shrunken log2 fold change |
| --- | --- |
| RRIRDRPPRLPRPRPRPLENPRP | 0.035 |
| RRIRRRPPRLPRPRPRPVTSPRP | 0.0312 |
| RRIRMRPPRLPRPRPRPLNIPRP | -0.163 |
| RRIRPRPPRLPRPRPRPTSNPRP | -0.123 |
| RRIRARPPRLPRPRPRPCQVPRP | -0.47 |
| RRIRQRPPRLPRPRPRPQAFPRP | -0.0347 |
| RRIRYRPPRLPRPRPRPCPHPRP | -0.0263 |
| RRIRERPPRLPRPRPRPAPSPRP | 0.116 |
| RRIRERPPRLPRPRPRPRPFPRP | -0.0965 |
| RRIRNRPPRLPRPRPRPNIVPRP | -0.115 |
| RRIRGRPPRLPRPRPRPTMNPRP | 0.709 |
| RRIRLRPPRLPRPRPRPGQHPRP | -0.0142 |
| RRIRERPPRLPRPRPRPTHRPRP | 0.243 |
| RRIRGRPPRLPRPRPRPNPAPRP | 0.231 |
| RRIRFRPPRLPRPRPRPDYFPRP | -0.167 |
| RRIRNRPPRLPRPRPRPCTGPRP | -0.0472 |
| RRIRPRPPRLPRPRPRPDMIPRP | 0.249 |
| RRIRIRPPRLPRPRPRPSFEPRP | -0.507 |
| RRIRYRPPRLPRPRPRPWCCPRP | -0.207 |
| RRIRSRPPRLPRPRPRPSAKPRP | 2.05 |
| RRIRGRPPRLPRPRPRPKLIPRP | 0.479 |
| RRIRMRPPRLPRPRPRPWWHPRP | 0.158 |
| RRIRFRPPRLPRPRPRPAVVPRP | -0.231 |
| RRIRPRPPRLPRPRPRPLGVPRP | 0.361 |
| RRIRKRPPRLPRPRPRPFWYPRP | 0.0709 |

| Sequence | shrunken log2 fold change |
| --- | --- |
| RRIRYRPPRLPRPRPRPFWKPRP | 0.226 |
| RRIRSRPPRLPRPRPRPVAPPRP | 0.397 |
| RRIRDRPPRLPRPRPRPVHMPRP | 0.111 |
| RRIRGRPPRLPRPRPRPMRCPRP | 0.581 |
| RRIRTRPPRLPRPRPRPHSKPRP | -0.2 |
| RRIRLRPPRLPRPRPRPNWAPRP | -0.00149 |
| RRIRVRPPRLPRPRPRPWQCPRP | -0.00264 |
| RRIRYRPPRLPRPRPRPYNMPRP | -1.09 |
| RRIRCRPPRLPRPRPRPDDEPRP | 0.33 |
| RRIRGRPPRLPRPRPRPHKGPRP | -0.136 |
| RRIRNRPPRLPRPRPRPQWDPRP | -0.0901 |
| RRIRARPPRLPRPRPRPFVQPRP | -0.00645 |
| RRIRWRPPRLPRPRPRPSAQPRP | 0.422 |
| RRIRFRPPRLPRPRPRPIKLPRP | -0.825 |
| RRIRHRPPRLPRPRPRPIHAPRP | -0.173 |
| RRIRSRPPRLPRPRPRPRRVPRP | 0.452 |
| RRIRVRPPRLPRPRPRPCMWPRP | 0.0384 |
| RRIRRRPPRLPRPRPRPSWMPRP | -0.324 |
| RRIRARPPRLPRPRPRPDCCPRP | 0.172 |
| RRIRDRPPRLPRPRPRPGKKPRP | -0.00968 |
| RRIRARPPRLPRPRPRPCKNPRP | 0.138 |
| RRIRVRPPRLPRPRPRPQWVPRP | -0.222 |
| RRIRMRPPRLPRPRPRPLFIPRP | -0.643 |
| RRIRCRPPRLPRPRPRPIENPRP | -0.209 |
| RRIRLRPPRLPRPRPRPATKPRP | 0.0731 |
